This is an account of results in article PMC6826516 (2019).

The labels stand for the following.
B1: SmBiT-TAZ-Flag (TAZ aa 13-119), wild type [not stated] / LgBiT-TEAD1-Myc (TEAD1 aa 194-411), wild type [not stated] (parent complex)
chain 1: PGQQVIHVTQDLDTDLEALFNSVMNPKPSSWRKKILPESFFKEPDSGSHSRQSSTDSSGGHPGPRLAGGAQHVRSHSSPASLQLGTGAGAAGSPAQQHAHLRQQSYD
chain 2: RSIGTTKLRLVEFSAFLEQQRDPDSYNKHLFVHIGHANHSYSDPLLESVDIRQIYDKFPEKKGGLKELFGKGPQNAFFLVKFWADLNCNIQDDAGAFYGVTSQYESSENMTVTCSTKVCSFGKQVVEKVETEYARFENGRFVYRINRSPMCEYMINFIHKLKHLPEKYMMNSVLENFTILLVVTNRDTQETLLCMACVFEVSNSEHGAQHHIYRLVKD

The assay covers variants of B1. Kind of assay: NanoBiT assay (split-luciferase biosensor) in lysates of transfected HEK293T cells; 48 h after transfection; equal amounts of each biosensor plasmid; read off a plot.
With chain 1 W31A, chain 1 K34A, chain 1 L36A, chain 1 S39A, chain 1 F40A, chain 1 F41A, the response is ~430 fold over LgBiT-TEAD1 alone.
